Measured values from patent publication US20240092836A1.

B1: C4m#19-5th4w-NN6-67 (peptide, not shown: large carriers; small tags and cut ends)
chain: GGCLHPFLPIRSVHFCPR
B2: C4m#19-5th4w-NN6-19 (peptide, not shown: large carriers; small tags and cut ends)
chain: GGCRHPYLPIWSIHFCQK
B3: C4m#19-5th4w-NN6-87 (peptide, not shown: large carriers; small tags and cut ends)
chain: GGCLHPVLPIRSFHFCWR
B4: C4m#19-5th4w-NN6-15 (peptide, not shown: large carriers; small tags and cut ends)
chain: GGCLHPFLPIRSVHFCPF
B5: C4m#19-5th4w-NN6-82 (peptide, not shown: large carriers; small tags and cut ends)
chain: GGCFHPFLPIRSLHFCCR
B6: C4m#19-5th4w-NN6-56 (peptide, not shown: large carriers; small tags and cut ends)
chain: GGCWHPFLPIQSLHFCGV
B7: C4m#19-5th4w-NN6-11 (peptide, not shown: large carriers; small tags and cut ends)
chain: GGCRHPFLPIWSHHFCVC
B8: C4m#19-5th4w-NN6-9 (peptide, not shown: large carriers; small tags and cut ends)
chain: GGCFHPYLPIRSWHFCGR
B9: C4m#19-5th2w-NNS6-94 (peptide, not shown: large carriers; small tags and cut ends)
chain: GGCFHPYLPISSVHFCGR
B10: C4m#19-5th4w-NN6-44 (peptide, not shown: large carriers; small tags and cut ends)
chain: GGCRHPFLPIVSWHFCGR
B11: C4m#19-5th4w-NN6-53 (peptide, not shown: large carriers; small tags and cut ends)
chain: GGCRHPFLPIYSVHFCAC
B12: C4m3127-4th-NNS6-87 (peptide, not shown: large carriers; small tags and cut ends)
chain: GGCRHPWLPIVSWHFCSR
B13: C4m#19-5th4w-NN6-68 (peptide, not shown: large carriers; small tags and cut ends)
chain: GGCLHPWLPIRSRHFCSR
B14: C4m#19-5th4w-NN6-70 (peptide, not shown: large carriers; small tags and cut ends)
chain: GGCMHPFLPIRSMHFCPL
B15: C4m#19-5th4w-NN6-65-1 (peptide, not shown: large carriers; small tags and cut ends)
chain: GGCWHPFLPISSPHFCGR
B16: C4m#19-5th4w-NN6-54 (peptide, not shown: large carriers; small tags and cut ends)
chain: GGCLHPGLPIRSLHFCPR
B17: C4m#19-5th4w-NN6-77 (peptide, not shown: large carriers; small tags and cut ends)
chain: GGCRHPFLPIVSTHFCSR
B18: C4m#19-5th4w-NN6-7 (peptide, not shown: large carriers; small tags and cut ends)
chain: GGCRHPFLPIWSWHFCPF
B19: C4m#19-5th4w-NN6-20 (peptide, not shown: large carriers; small tags and cut ends)
chain: GGCSHPQLPILSDHFCSA
B20: C4m#19-5th4w-NN6-69-3 (peptide, not shown: large carriers; small tags and cut ends)
chain: GGCLHPWLPIVSVHFCAR
B21: C4m#19-5th4w-NN6-34 (peptide, not shown: large carriers; small tags and cut ends)
chain: GGCFHPFLPIRSDHFCSR
B22: C4m#19-5th2w-NNS6-14 (peptide, not shown: large carriers; small tags and cut ends)
chain: GGCWHPFLPIRSYHFCPW
B23: C4m#19-5th4w-NN6-85 (peptide, not shown: large carriers; small tags and cut ends)
chain: GGCWHPFLPIFSVHFCGC
B24: C4m#19-5th4w-NN6-57 (peptide, not shown: large carriers; small tags and cut ends)
chain: GGCMHPYLPIVSVHFCPC
B25: C4m#19-5th4w-NN6-25 (peptide, not shown: large carriers; small tags and cut ends)
chain: GGCLHPVLPIRSRHFCPV
B26: C4m#19-5th4w-NN6-32 (peptide, not shown: large carriers; small tags and cut ends)
chain: GGCPHPFLPIWSVHFCPF
B27: C4n#19-5th2w-NNS6-71 (peptide, not shown: large carriers; small tags and cut ends)
chain: GGCRHPYLPIASPHFCPG
B28: C4m#19-5th4w-NN6-50 (peptide, not shown: large carriers; small tags and cut ends)
chain: GGCKHPVLPIWSWHFCRI
B29: C4m#19-5th4w-NN6-39 (peptide, not shown: large carriers; small tags and cut ends)
chain: GGCWHPFLPIRSLHFCPR
B30: C4m#19-5th4w-NN6-47 (peptide, not shown: large carriers; small tags and cut ends)
chain: GGCPHPWLPIFSRHFCPV
B31: C4m3127-4th-NNS6-90 (peptide, not shown: large carriers; small tags and cut ends)
chain: GGCKHPVLPIVSLHFCPW
B32: C4m#19-5th4w-NN6-37 (peptide, not shown: large carriers; small tags and cut ends)
chain: GGCLHPFLPISSWHFCGR
B33: C4m#19-5th4w-NN6-51 (peptide, not shown: large carriers; small tags and cut ends)
chain: GGCWHPYLPIVSWHFCSR
B34: C4m#19-5th2w-NNS6-21 (peptide, not shown: large carriers; small tags and cut ends)
chain: GGCWHPFLPIRSSHFCPS
B35: C4m#19-5th2w-NNS6-67 (peptide, not shown: large carriers; small tags and cut ends)
chain: GGCQHPWLPISSWHFCPR
B36: C4m#19-5th2w-NNS6-55 (peptide, not shown: large carriers; small tags and cut ends)
chain: GGCMHPYLPIKSVHFCPL
B37: C4m#19-5th4w-NN6-78 (peptide, not shown: large carriers; small tags and cut ends)
chain: GGCWHPALPIRSWHFCPR
B38: C4m#19-5th4w-NN6-59 (peptide, not shown: large carriers; small tags and cut ends)
chain: GGCLHPHLPIWSLHFCPL
B39: C4m#19-5th4w-NN6-24 (peptide, not shown: large carriers; small tags and cut ends)
chain: GGCWHPWLPIYSHHFCPI
B40: C4m#19-5th4w-NN6-93 (peptide, not shown: large carriers; small tags and cut ends)
chain: GGCCHPWLPIVSTHFCGL
B41: C4m#19-5th4w-NN6-21 (peptide, not shown: large carriers; small tags and cut ends)
chain: GGCWHPWLPILSPHFCPR
B42: C4m#19-5th4w-NN6-52 (peptide, not shown: large carriers; small tags and cut ends)
chain: GGCLHPFLPIRSVHFCGC
B43: C4m#19-5th4w-NN6-69-1 (peptide, not shown: large carriers; small tags and cut ends)
chain: GGCSHPFLPILSVHFCPF
B44: C4m3127-4th-NNS6-28 (peptide, not shown: large carriers; small tags and cut ends)
chain: GGCLHPFLPIFSSHFCAL
B45: C4m#19-5th4w-NN6-81 (peptide, not shown: large carriers; small tags and cut ends)
chain: GGCFHPYLPIRSWHFCSR
B46: C4m#19-5th4w-NN6-4 (peptide, not shown: large carriers; small tags and cut ends)
chain: GGCRHPYLPIVSRHFCPF
B47: C4m#19-5th4w-NN6-23 (peptide, not shown: large carriers; small tags and cut ends)
chain: GGCRHPHLPIWSWHFCGR
B48: C4m#19-5th2w-NNS6-22 (peptide, not shown: large carriers; small tags and cut ends)
chain: GGCMHPFLPIQSVHFCSR
B49: C4m#19-5th4w-NN6-79 (peptide, not shown: large carriers; small tags and cut ends)
chain: GGCWHPVLPIRSCHFCAV
B50: C4m#19-5th4w-NN6-92-1 (peptide, not shown: large carriers; small tags and cut ends)
chain: GGCVHPFLPIRSVHFCAL
B51: C4m#19-5th4w-NN6-55-4 (peptide, not shown: large carriers; small tags and cut ends)
chain: GGCVHPSLPILSVHFCPR

The binders below were run against Recombinant Human CTLA4-Fc chimera (R&D systems) (human) (UniProt P16410) (assay: ELISA, signal over SA).

Row | Binder | ELISA S/N(SA)
1 | B1 | 45.4
2 | B2 | 29.7
3 | B3 | 21.4
4 | B4 | 39.9
5 | B5 | 28.3
6 | B6 | 27.1
7 | B7 | 22.1
8 | B8 | 28.8
9 | B9 | 22.4
10 | B10 | 30.1
11 | B11 | 32.2
12 | B12 | 21.4
13 | B13 | 24.7
14 | B14 | 35.5
15 | B15 | 29.5
16 | B16 | 33.3
17 | B17 | 30.5
18 | B18 | 23
19 | B19 | 30.6
20 | B20 | 24.9
21 | B21 | 32.2
22 | B22 | 34.7
23 | B23 | 22.9
24 | B24 | 27.7
25 | B25 | 38.9
26 | B26 | 27.2

Row | Binder | ELISA S/N(SA)
27 | B27 | 22.9
28 | B28 | 28.1
29 | B29 | 35.6
30 | B30 | 34.2
31 | B31 | 22.9
32 | B32 | 22.7
33 | B33 | 22.1
34 | B34 | 31.1
35 | B35 | 25.5
36 | B36 | 28.3
37 | B37 | 27.9
38 | B38 | 27.6
39 | B39 | 27.6
40 | B40 | 28.9
41 | B41 | 37.5
42 | B42 | 28.6
43 | B43 | 24.9
44 | B44 | 23.2
45 | B45 | 32.3
46 | B46 | 31.6
47 | B47 | 30.2
48 | B48 | 29.3
49 | B49 | 24.9
50 | B50 | 30
51 | B51 | 29.5
